Data reported in patent publication US20210147504A1 (Bayer, published 2021).
Several values for one entry are separate records, joined by “and”; a condition that tells them apart may be missing. Equal values may be shown once. Each block holds one binder with its values, some of them ahead of it.

How the values were obtained:
human NPRA [1] = molecular target: T1, human NPRA (human, UniProt P16066 33-1061); assay: cell-based or functional assay
T1 sequence (looked up): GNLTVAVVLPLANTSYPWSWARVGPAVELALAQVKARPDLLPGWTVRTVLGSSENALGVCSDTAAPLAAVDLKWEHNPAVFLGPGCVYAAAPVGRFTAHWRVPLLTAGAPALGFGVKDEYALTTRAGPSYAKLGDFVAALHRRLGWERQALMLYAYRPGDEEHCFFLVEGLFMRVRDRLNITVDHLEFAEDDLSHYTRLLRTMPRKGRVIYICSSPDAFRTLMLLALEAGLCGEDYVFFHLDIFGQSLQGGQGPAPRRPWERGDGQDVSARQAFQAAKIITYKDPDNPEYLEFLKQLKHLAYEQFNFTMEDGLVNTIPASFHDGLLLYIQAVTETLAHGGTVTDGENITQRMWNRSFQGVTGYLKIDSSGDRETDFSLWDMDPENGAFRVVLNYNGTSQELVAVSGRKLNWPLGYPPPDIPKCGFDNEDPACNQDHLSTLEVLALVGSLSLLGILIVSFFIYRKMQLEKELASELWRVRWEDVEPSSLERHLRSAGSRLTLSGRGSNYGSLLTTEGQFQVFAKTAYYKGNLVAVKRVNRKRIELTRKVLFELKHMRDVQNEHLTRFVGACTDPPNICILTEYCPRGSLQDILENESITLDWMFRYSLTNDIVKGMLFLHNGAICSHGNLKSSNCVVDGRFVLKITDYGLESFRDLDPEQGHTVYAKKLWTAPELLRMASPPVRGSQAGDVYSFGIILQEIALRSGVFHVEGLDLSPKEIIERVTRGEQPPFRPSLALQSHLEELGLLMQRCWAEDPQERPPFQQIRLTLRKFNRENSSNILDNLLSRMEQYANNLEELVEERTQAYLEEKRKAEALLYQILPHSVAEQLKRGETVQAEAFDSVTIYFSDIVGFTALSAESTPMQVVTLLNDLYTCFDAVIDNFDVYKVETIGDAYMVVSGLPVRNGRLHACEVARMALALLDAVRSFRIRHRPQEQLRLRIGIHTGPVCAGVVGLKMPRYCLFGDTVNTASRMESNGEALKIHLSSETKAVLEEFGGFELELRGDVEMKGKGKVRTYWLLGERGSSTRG

human NPRA [2] = molecular target: T2, human NPRA (human, UniProt P16066 33-1061); assay: cell-based or functional assay; remark: listed apart in the source
T2 sequence (looked up): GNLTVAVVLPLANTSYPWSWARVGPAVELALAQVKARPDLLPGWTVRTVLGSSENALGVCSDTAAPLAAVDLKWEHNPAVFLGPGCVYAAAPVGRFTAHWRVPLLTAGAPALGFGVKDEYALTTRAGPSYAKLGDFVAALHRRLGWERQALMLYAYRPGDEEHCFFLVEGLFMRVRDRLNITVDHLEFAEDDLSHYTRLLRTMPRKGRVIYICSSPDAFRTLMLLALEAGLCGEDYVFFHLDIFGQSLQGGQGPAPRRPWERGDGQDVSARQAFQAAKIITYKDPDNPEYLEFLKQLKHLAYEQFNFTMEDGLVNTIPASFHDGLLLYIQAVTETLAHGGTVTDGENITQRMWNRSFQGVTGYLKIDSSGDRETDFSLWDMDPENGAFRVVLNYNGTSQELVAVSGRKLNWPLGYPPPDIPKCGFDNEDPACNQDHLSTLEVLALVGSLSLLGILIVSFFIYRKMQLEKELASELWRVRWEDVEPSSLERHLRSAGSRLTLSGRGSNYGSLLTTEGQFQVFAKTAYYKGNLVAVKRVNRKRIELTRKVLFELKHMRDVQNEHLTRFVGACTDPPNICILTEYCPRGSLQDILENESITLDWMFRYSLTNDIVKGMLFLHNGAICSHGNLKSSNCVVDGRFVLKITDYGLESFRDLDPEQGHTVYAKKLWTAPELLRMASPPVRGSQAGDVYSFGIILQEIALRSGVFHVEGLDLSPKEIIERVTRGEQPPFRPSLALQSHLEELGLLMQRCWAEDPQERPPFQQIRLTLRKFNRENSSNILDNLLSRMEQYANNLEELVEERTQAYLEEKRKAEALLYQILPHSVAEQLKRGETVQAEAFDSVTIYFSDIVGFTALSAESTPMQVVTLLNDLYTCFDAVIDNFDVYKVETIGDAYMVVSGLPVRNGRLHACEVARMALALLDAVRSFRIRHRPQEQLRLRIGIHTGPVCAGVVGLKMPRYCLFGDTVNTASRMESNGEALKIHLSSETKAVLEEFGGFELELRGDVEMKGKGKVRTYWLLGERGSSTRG

B1: TPP-10274 (antibody)
heavy: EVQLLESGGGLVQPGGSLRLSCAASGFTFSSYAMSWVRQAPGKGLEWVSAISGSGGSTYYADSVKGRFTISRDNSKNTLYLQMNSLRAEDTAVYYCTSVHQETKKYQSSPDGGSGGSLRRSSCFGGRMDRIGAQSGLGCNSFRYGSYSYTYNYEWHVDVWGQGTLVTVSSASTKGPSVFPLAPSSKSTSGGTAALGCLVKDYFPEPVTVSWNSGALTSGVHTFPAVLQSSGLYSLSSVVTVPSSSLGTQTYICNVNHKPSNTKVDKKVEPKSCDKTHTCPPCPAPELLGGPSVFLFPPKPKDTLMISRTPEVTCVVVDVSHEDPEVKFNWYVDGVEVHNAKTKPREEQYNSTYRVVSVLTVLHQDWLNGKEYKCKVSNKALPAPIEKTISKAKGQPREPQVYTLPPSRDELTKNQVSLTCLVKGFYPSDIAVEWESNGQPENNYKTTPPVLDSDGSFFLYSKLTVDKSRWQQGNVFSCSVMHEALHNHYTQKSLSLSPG
light: QSVLTQPPSVSGAPGQRVTISCTGSSSNIGAGYDVHWYQQLPGTAPKLLIYGNSNRPSGVPDRFSGSKSGTSASLAITGLQAEDEADYYCQSYDSSLSGVVFGGGTKLTVLGQPKAAPSVTLFPPSSEELQANKATLVCLISDFYPGAVTVAWKADSSPVKAGVETTTPSKQSNNKYAASSYLSLTPEQWKSHRSYSCQVTHEGSTVEKTVAPTECS
activity rcs (human NPRA [1]): 71%
average rel logEC50 (human NPRA [1]): -0.1 log vs TPP-5661
rel. logEC50 pcs 2 (human NPRA [1]): -0.3 log vs TPP-5661
rel. logEC50 pcs 3 (human NPRA [1]): -0.2 log vs TPP-5661
rel. logEC50 pcs 7 (human NPRA [1]): 0 log vs TPP-5661

B2: TPP-5661 (antibody)
heavy: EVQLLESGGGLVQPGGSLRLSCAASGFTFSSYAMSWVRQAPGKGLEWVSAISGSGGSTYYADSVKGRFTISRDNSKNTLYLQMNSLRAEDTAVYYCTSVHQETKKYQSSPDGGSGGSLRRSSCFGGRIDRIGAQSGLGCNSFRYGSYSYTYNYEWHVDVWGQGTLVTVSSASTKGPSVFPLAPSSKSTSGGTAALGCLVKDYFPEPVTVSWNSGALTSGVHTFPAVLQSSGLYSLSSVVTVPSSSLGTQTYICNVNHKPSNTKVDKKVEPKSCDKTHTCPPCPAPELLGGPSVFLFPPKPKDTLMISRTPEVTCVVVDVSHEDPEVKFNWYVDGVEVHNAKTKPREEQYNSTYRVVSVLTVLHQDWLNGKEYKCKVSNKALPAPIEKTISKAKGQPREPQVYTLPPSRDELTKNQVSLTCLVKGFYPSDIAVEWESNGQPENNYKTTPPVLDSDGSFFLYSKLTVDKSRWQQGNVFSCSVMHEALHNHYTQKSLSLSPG
light: QSVLTQPPSVSGAPGQRVTISCTGSSSNIGAGYDVHWYQQLPGTAPKLLIYGNSNRPSGVPDRFSGSKSGTSASLAITGLQAEDEADYYCQSYDSSLSGVVFGGGTKLTVLGQPKAAPSVTLFPPSSEELQANKATLVCLISDFYPGAVTVAWKADSSPVKAGVETTTPSKQSNNKYAASSYLSLTPEQWKSHRSYSCQVTHEGSTVEKTVAPTECS
activity rcs (human NPRA [2]): 36%
average rel logEC50 (human NPRA [2]): 0 log vs TPP-5661
rel. activity rcs (human NPRA [2]): 0 log vs TPP-5661
rel. logEC50* pcs (human NPRA [2]): 0 log vs TPP-5661
rel. logEC50 ics (human NPRA [2]): 0 log vs TPP-5661
rel. logEC50 pcs 1 (human NPRA [2]): 0 log vs TPP-5661
rel. logEC50 pcs 2 (human NPRA [2]): 0 log vs TPP-5661
rel. logEC50 pcs 3 (human NPRA [2]): 0 log vs TPP-5661
rel. logEC50 pcs 4 (human NPRA [2]): 0 log vs TPP-5661
rel. logEC50 pcs 5 (human NPRA [2]): 0 log vs TPP-5661
rel. logEC50 pcs 6 (human NPRA [2]): 0 log vs TPP-5661
rel. logEC50 pcs 7 (human NPRA [2]): 0 log vs TPP-5661
rel. logEC50 pcs 8 (human NPRA [2]): 0 log vs TPP-5661
rel. logEC50 pcs 9 (human NPRA [2]): 0 log vs TPP-5661

B4: TPP-10290 (antibody)
heavy: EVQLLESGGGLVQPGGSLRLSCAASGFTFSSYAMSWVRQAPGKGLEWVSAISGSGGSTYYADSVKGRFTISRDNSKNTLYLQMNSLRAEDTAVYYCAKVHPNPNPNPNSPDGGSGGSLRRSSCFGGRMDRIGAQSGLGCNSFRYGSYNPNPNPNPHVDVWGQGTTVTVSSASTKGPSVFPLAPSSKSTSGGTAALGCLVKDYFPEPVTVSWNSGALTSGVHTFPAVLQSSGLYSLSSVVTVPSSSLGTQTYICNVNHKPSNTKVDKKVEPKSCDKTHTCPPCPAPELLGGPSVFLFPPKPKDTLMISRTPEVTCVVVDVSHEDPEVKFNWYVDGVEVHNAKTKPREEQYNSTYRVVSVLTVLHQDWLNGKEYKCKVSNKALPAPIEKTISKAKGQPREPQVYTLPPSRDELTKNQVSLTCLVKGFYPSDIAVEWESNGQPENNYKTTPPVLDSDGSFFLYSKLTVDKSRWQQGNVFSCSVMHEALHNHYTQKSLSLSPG
light: QSVLTQPPSVSGAPGQRVTISCTGSSSNIGAGYDVHWYQQLPGTAPKLLIYGNSNRPSGVPDRFSGSKSGTSASLAITGLQAEDEADYYCQSYDSSLSGVVFGGGTKLTVLGQPKAAPSVTLFPPSSEELQANKATLVCLISDFYPGAVTVAWKADSSPVKAGVETTTPSKQSNNKYAASSYLSLTPEQWKSHRSYSCQVTHEGSTVEKTVAPTECS
activity rcs (human NPRA [2]): 84%
average rel logEC50 (human NPRA [2]): -0.5 log vs TPP-5661
rel. logEC50 pcs 2 (human NPRA [2]): -0.8 log vs TPP-5661
rel. logEC50 pcs 3 (human NPRA [2]): -0.1 log vs TPP-5661

B5: TPP-10361 (antibody, human IgG1, lambda)
heavy: not shown
light: QSVLTQPPSVSGAPGQRVTISCTGSSSNIGAGYDVHWYQQLPGTAPKLLIYGSGSGSGSGSGSPDGGSGGSLRRSSCFGGRMDRIGAQSGLGCNSFRYGSYGSGGSGSGSGNRPSGVPDRFSGSKSGTSASLAITGLQAEDEADYYCQSYDSSLSGVVFGGGTKLTVLGQPKAAPSVTLFPPSSEELQANKATLVCLISDFYPGAVTVAWKADSSPVKAGVETTTPSKQSNNKYAASSYLSLTPEQWKSHRSYSCQVTHEGSTVEKTVAPTECS
activity rcs (human NPRA [2]): 20%
average rel logEC50 (human NPRA [2]): -0.1 log vs TPP-5661
rel. activity rcs (human NPRA [2]): -0.1 log vs TPP-5661
rel. logEC50 pcs 5 (human NPRA [2]): -0.1 log vs TPP-5661

B6: TPP-10355 (antibody, human IgG1, lambda)
heavy: not shown
light: QSVLTQPPSVSGAPGQRVTISCTGSSSNIGAGYDVHWYQQLPGTAPKLLIYGNSNRPSGVPDRFSGSKSGTSASLAITGLQAEDEADYYCAAWNPNPNPNPNPNGGSGGSLRRSSCFGGRMDRIGAQSGLGCNSFRYGSNPNPNPNPNPNVFGSGTKVTVLGQPKAAPSVTLFPPSSEELQANKATLVCLISDFYPGAVTVAWKADSSPVKAGVETTTPSKQSNNKYAASSYLSLTPEQWKSHRSYSCQVTHEGSTVEKTVAPTECS
activity rcs (human NPRA [2]): 94%
average rel logEC50 (human NPRA [2]): -0.2 log vs TPP-5661
rel. activity rcs (human NPRA [2]): 0.1 log vs TPP-5661
rel. logEC50 pcs 2 (human NPRA [2]): -0.6 log vs TPP-5661
rel. logEC50 pcs 3 (human NPRA [2]): 0.2 log vs TPP-5661
rel. logEC50 pcs 4 (human NPRA [2]): -0.3 log vs TPP-5661

The next lines start with the values.

average rel logEC50 (human NPRA [2]): -0.3 log vs TPP-5661
rel. logEC50 pcs 9 (human NPRA [2]): -0.3 log vs TPP-5661
B3: TPP-13230 (antibody)
heavy: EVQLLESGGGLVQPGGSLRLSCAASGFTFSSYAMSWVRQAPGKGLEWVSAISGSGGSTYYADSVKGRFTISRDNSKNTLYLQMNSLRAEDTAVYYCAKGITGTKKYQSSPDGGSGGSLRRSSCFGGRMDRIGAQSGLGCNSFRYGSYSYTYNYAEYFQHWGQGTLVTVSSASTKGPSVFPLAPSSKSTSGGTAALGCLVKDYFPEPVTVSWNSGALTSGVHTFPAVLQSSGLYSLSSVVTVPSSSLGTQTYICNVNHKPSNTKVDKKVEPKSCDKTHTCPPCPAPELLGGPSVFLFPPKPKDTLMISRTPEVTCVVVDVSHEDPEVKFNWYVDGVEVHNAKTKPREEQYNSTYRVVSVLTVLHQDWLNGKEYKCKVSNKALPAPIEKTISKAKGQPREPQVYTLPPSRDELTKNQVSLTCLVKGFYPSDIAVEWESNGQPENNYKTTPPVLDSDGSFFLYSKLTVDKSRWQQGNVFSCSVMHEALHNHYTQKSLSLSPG
light: QSVLTQPPSVSGAPGQRVTISCTGSSSNIGAGYDVHWYQQLPGTAPKLLIYGNSNRPSGVPDRFSGSKSGTSASLAITGLQAEDEADYYCQSYDSSLSGVVFGGGTKLTVLGQPKAAPSVTLFPPSSEELQANKATLVCLISDFYPGAVTVAWKADSSPVKAGVETTTPSKQSNNKYAASSYLSLTPEQWKSHRSYSCQVTHEGSTVEKTVAPTECS

average rel logEC50 (human NPRA [1]): -0.8 log vs TPP-5661
rel. logEC50* pcs (human NPRA [1]): -0.7 log vs TPP-5661 and -0.8 log vs TPP-5661
B7: TPP-13054 (antibody, human IgG1, lambda)
heavy: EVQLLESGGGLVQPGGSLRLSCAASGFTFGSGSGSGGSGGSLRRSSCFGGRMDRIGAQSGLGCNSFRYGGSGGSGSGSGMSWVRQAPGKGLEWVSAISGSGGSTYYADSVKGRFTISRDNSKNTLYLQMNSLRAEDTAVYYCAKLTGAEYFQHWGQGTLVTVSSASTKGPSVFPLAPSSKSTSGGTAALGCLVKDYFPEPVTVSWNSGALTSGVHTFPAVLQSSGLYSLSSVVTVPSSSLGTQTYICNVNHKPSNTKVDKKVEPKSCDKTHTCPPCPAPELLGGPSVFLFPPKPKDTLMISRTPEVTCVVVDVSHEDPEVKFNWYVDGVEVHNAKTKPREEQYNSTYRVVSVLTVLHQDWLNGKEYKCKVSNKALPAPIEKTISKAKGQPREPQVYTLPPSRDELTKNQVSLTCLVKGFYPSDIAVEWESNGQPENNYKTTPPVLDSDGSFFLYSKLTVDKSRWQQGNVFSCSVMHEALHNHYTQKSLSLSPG
light: QSVLTQPPSVSGAPGQRVTISCTGSSSNIGAGYDVHWYQQLPGTAPKLLIYGNSNRPSGVPDRFSGSKSGTSASLAITGLQAEDEADYYCQSYDSSLSGVVFGGGTKLTVLGQPKAAPSVTLFPPSSEELQANKATLVCLISDFYPGAVTVAWKADSSPVKAGVETTTPSKQSNNKYAASSYLSLTPEQWKSHRSYSCQVTHEGSTVEKTVAPTECS
